Assay results: patent US11339383B2, “G proteins” (HEPTARES THERAPEUTICS LIMITED, priority 2016, dated 2022)

Tests used:
[1] = molecular target: A2AR (Homo sapiens, UniProt P29274, N154A); experiment: Thermostability assay of ^3H-NECA-bound A2AR
Experimental: The samples were incubated at room temperature for 1 h, then chilled on ice for 30 min. DDM, DM or OG were added to a final concentration of 0.1%, 0.13% or 0.8%, respectively, and samples were incubated on ice for 1 h. Cell debris was removed by centrifugation for 5 min at 20,000×g and the supernatant was aliquoted into PCR strips. Samples were heated to the desired temperature for exactly 30 min, then quenched on ice for 30 min. Samples (50 μl) were loaded onto gel filtration resin packed into a 96-well filter plate (Millipore), which was centrifuged to separate receptor-bound from free radioligand. […] Data were analyzed by nonlinear regression using GraphPad Prism software. Apparent Tm values were derived from sigmoidal dose-response analysis. Results represent the mean±SEM of two independent experiments, performed in duplicate.
Samples were heated to the desired temperature for exactly 30 min, then quenched on ice for 30 min. Samples (50 μl) were loaded onto gel-filtration resin (Toyopearl HW-40F) packed into a 96-well filter plate (Millipore), which was centrifuged to separate receptor-bound from free radioligand [28]. […] Data were analysed by nonlinear regression using GraphPad Prism software. Apparent Tm values were derived from sigmoidal dose-response analysis performed by non-liner regression. Results represent the mean±SEM of two independent experiments, performed in duplicate.

[2] = molecular target: T1, NTSR1 (Rattus norvegicus, UniProt P20789); experiment: Thermostability assay of ^3H-NTS-bound NTSR1; format: biochemical; details: DDM-solubilized
T1 construct: the wild-type rat NTSR1 (residues 43-396) and a C-terminal His10 tag; hemagglutinin signal peptide (N); Flag (N); His10 (C); made in house; host or cells: Trichoplusia ni insect cells, baculovirus (modified pFastBac1)
Experimental: The samples were placed on a rotating mixer at 4° C. for 1 hour. Cell debris and non-solubilized material were removed by ultracentrifugation (152,800×g, 4° C., 30 min), and the supernatant containing detergent-solubilized NTSR1 was used to test for thermal stability in the presence of NTS and mini-G proteins. For thermal denaturation curves, the supernatants were diluted 6.67-fold into assay buffer (50 mM TrisHCl pH 7.4, 100 mM NaCl, 1 mM MgCl2) containing 22.5 μM mini-G protein and 10 nM ^3H-NTS and incubated for 1 hour on ice. After addition of apyrase (0.25 units/ml, NEB), the sample was placed on ice for an additional 30 min. Samples (120 μl aliquots) were exposed to different temperatures between 0° C. and 60° C. for 30 min and placed on ice. […] Control reactions on ice were recorded at the start and at the end of each denaturation experiment. The percentage of activity remaining after heat exposure was determined with respect to the unheated control. Data were analyzed by nonlinear regression using a Boltzmann sigmoidal equation in the Prism software (GraphPad).

T1 sequence (P20789 43-396): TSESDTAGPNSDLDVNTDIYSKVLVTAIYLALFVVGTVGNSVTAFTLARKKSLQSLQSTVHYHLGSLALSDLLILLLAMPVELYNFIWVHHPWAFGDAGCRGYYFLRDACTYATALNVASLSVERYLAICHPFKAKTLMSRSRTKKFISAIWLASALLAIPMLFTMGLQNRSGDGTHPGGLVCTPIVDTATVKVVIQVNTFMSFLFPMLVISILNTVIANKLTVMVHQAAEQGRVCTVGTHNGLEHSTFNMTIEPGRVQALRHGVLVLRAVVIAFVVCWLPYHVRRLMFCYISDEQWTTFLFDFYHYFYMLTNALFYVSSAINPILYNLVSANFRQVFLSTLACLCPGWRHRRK
A2AR, sequence (P29274 1-317 N154A): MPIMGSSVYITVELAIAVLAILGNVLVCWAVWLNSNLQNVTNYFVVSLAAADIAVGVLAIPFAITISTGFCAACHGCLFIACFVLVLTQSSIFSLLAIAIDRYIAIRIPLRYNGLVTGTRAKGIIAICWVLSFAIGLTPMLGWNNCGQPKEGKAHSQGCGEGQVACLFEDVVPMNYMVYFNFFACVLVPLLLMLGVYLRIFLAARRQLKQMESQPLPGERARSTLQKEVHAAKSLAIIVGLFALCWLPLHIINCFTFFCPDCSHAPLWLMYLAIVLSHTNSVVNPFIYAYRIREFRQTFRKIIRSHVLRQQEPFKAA

B1: Mini-Gs/q58: mini-Gs with final 19 residues of α5 helix changed to those in Gαq (13 mutations) (protein)
chain: MGHHHHHHENLYFQGIEKQLQKDKQVYRATHRLLLLGADNSGKSTIVKQMRILHGGSGGSGGTSGIFETKFQVDKVNFHMFDVGGQRDERRKWIQCFNDVTAIIFVVDSSDYNRLQEALNDFKSIWNNRWLRTISVILFLNKQDLLAEKVLAGKSKIEDYFPEFARYTTPEDATPEPGEDPRVTRAKYFIRDEFLRISTASGDGRHYCYPHFTCAVDTENARRIFAAVKDTILQLNLKEYNLV
modifications: Mini-Gs/q58
- coupling of mini-Gs/q chimera to A2AR (thermostability assay and SEC) [1]: did not couple
- shift in the thermostability of NTSR1 [2]: no significant shift
